T1: Rpl5 (uL18) (S. cerevisiae (endogenous in yeast cells)) (UniProt P26321)
T1 sequence: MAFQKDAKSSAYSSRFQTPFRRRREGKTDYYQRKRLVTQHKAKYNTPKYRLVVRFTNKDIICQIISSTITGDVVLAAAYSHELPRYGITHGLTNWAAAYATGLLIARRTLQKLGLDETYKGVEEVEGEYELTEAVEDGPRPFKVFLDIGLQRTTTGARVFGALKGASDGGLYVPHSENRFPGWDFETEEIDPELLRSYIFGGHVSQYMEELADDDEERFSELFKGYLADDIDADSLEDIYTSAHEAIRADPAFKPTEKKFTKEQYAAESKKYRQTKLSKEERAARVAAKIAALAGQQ

B1: C-terminally TAP-tagged Acl4 (natural protein)
chain: MSELEATIRQAKEALAENNAKKALKILKPFKSSLKKENANNVILNEVFADAYLDNGQVEKAYPILARACELDPEGQVGGPDKFFTMGQIMGGQDGVSIITRGIMNISNTGGEMLTNVQVEKIVGGLLSVIEIWMTDLCMEPNAEEQCEELIQKAMELTEGKSPETWSTLGSIKISQQKFGEAYEAFSQAWNFFELKKQEIGSGINENGDTTQKAGLQSEYVDLLQPLLSLTKMCLEVGAYEVALKVIAAVRDIDEDNIEGYYLEGFTYYLMSKLEIFKLNNPEVSLRPENIYEFNQLIQEVPLDLSHEPISQLIYDSRLALSFALQAGVNADSKDEIVQELLGGANALLQEIGGPLDPSELTQIKKGDLVNENEDLEELDIEEEYSD
B2: Syo1-FTpA (natural protein)
chain: MGRSKKRSRASSSRLNPLRKAGSNDNNKDTNVVNKKLQPLLQNLSSVVPNDRSIALSSISVLCEDAHMRQLLLKEKLVPIILNKLLNDSNSDIVVESFGLLRNLSLEEGYDVSIYLWRSDIWTSITSNFGRIVESLSALQAAEQQPQLKPAGKSKIESKRLLFDFADNLLSLVVALSNGSDDILNEILTESKINEIFQVISQLLKYGVEKLPINLFNTTLDLIYDLSSESFEFIDHVSNNELLSQFLNGLSPALHPQANELTKVLIEGIHCQFLDMKITYDQCNKMIHSVCHSINNIDPVQLVNDINNPVEIGPATSKDESSKVITKIKDYNAKRNESMIKLQSIEIAIDLITAIIEIVASKYESPESQEVAIPEELINTLTNFLPHVFMILKDTFTSRILIGWNNLIWLFVSLSLTELSGELLTTLWSYVTQLDSQDDLSIKIGRMGCIWALLKLIFPDGAFESENRALINVQMLNNSGFARGIIEEFQNNNDLELQQKCINVLSTYAMIQGQIDANKEIGQFFIQTLTQLNVRPEILIEMTNSLFQIYGDASYDYNEPIFVRGGFLSILKDQVVPNLRQQFKMVDKNKNPELKERCHDCFTTLDSFIHYKMNENSTNQ

Columns and labels:
[1] = molecular target: Rpl4 (uL4), non-ribosome bound (S. cerevisiae (endogenous in yeast cells)) (UniProt P10664)
Sequence of UniProt P10664 (P10664 whole entry): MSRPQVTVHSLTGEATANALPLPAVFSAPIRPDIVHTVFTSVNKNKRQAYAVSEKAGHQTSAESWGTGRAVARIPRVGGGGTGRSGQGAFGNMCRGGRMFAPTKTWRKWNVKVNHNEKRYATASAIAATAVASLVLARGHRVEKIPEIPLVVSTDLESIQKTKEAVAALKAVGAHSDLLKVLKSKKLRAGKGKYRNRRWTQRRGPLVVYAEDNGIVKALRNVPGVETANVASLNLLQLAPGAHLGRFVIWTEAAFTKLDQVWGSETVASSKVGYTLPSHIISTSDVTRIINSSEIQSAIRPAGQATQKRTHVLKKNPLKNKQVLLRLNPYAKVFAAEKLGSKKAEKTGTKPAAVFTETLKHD

[2] = molecular target: T1, Rpl5 (uL18) (S. cerevisiae (endogenous in yeast cells))

| Binder | enrichment of the RPL4 mRNA, compared to the non-specific r-protein mRNAs, in the Acl4-TAP IgG-Sepharose purification from extracts of cycloheximide-treated cells (real-time qRT-PCR) [1] [fold] | enrichment of the RPL5 mRNA, compared to the non-specific r-protein mRNAs, in the Syo1-FTpA IgG-Sepharose purification from extracts of cycloheximide-treated cells (real-time qRT-PCR) [2] [fold] |
| --- | --- | --- |
| B1 | 150 | – |
| B2 | – | 150 |

— article PMC4598080
